Source: patent publication WO2006132352A1

Target: MG10 (Gln213 to Ala231 of the human Mpl amino acid sequence) and GST fusion protein (human) (UniProt P40238)
Assay: SPR, Biacore 3000, MG10-GST amine-coupled on CM5, sc(Fv)2 at about 5-150 nM as analyte, bivalent analyte model

Kd | Binder
10.2 nM | humanized anti-human Mpl antibody hVB22B u2-wz4 sc(Fv)2 (bulk, before separation of the structural isomers) (scFv, from another filing) QVQLVQSGPEVKKPGASVKVSCKASGYTFTNSWMNWVRQRPGKGLEWIGRIYPGDGETIYNGKFRVRVTITADESTSTAYMQLSSLRSEDTAVYYCARGYDDYSFAYWGQGTTVTVSSGGGGSGGGGSGGGGSDIVMTQSPLSLPVTPGEPASISCRSSKSLLHSNGNTYLYWFLQKPGQSPQLLIYRMSNLASGVPDRFSGSGSGTDFTLKISRVEAEDVGVYYCMQHIEYPFTFGQGTKLEIKGGGGSGGGGSGGGGSQVQLVQSGPEVKKPGASVKVSCKASGYTFTNSWMNWVRQRPGKGLEWIGRIYPGDGETIYNGKFRVRVTITADESTSTAYMQLSSLRSEDTAVYYCARGYDDYSFAYWGQGTTVTVSSGGGGSGGGGSGGGGSDIVMTQSPLSLPVTPGEPASISCRSSKSLLHSNGNTYLYWFLQKPGQSPQLLIYRMSNLASGVPDRFSGSGSGTDFTLKISRVEAEDVGVYYCMQHIEYPFTFGQGTKLEIK
9.92 nM | hVB22B u2-wz4 sc(Fv)2 peak2 (single chain diabody type structural isomer) (scFv, from another filing) QVQLVQSGPEVKKPGASVKVSCKASGYTFTNSWMNWVRQRPGKGLEWIGRIYPGDGETIYNGKFRVRVTITADESTSTAYMQLSSLRSEDTAVYYCARGYDDYSFAYWGQGTTVTVSSGGGGSGGGGSGGGGSDIVMTQSPLSLPVTPGEPASISCRSSKSLLHSNGNTYLYWFLQKPGQSPQLLIYRMSNLASGVPDRFSGSGSGTDFTLKISRVEAEDVGVYYCMQHIEYPFTFGQGTKLEIKGGGGSGGGGSGGGGSQVQLVQSGPEVKKPGASVKVSCKASGYTFTNSWMNWVRQRPGKGLEWIGRIYPGDGETIYNGKFRVRVTITADESTSTAYMQLSSLRSEDTAVYYCARGYDDYSFAYWGQGTTVTVSSGGGGSGGGGSGGGGSDIVMTQSPLSLPVTPGEPASISCRSSKSLLHSNGNTYLYWFLQKPGQSPQLLIYRMSNLASGVPDRFSGSGSGTDFTLKISRVEAEDVGVYYCMQHIEYPFTFGQGTKLEIK
12.4 nM | hVB22B u2-wz4 sc(Fv)2 peak1 (bivalent scFv type structural isomer) (scFv, from another filing) QVQLVQSGPEVKKPGASVKVSCKASGYTFTNSWMNWVRQRPGKGLEWIGRIYPGDGETIYNGKFRVRVTITADESTSTAYMQLSSLRSEDTAVYYCARGYDDYSFAYWGQGTTVTVSSGGGGSGGGGSGGGGSDIVMTQSPLSLPVTPGEPASISCRSSKSLLHSNGNTYLYWFLQKPGQSPQLLIYRMSNLASGVPDRFSGSGSGTDFTLKISRVEAEDVGVYYCMQHIEYPFTFGQGTKLEIKGGGGSGGGGSGGGGSQVQLVQSGPEVKKPGASVKVSCKASGYTFTNSWMNWVRQRPGKGLEWIGRIYPGDGETIYNGKFRVRVTITADESTSTAYMQLSSLRSEDTAVYYCARGYDDYSFAYWGQGTTVTVSSGGGGSGGGGSGGGGSDIVMTQSPLSLPVTPGEPASISCRSSKSLLHSNGNTYLYWFLQKPGQSPQLLIYRMSNLASGVPDRFSGSGSGTDFTLKISRVEAEDVGVYYCMQHIEYPFTFGQGTKLEIK
